# Assay results taken from patent US20170137490A1, “PEPTIDES, AND METHODS AND APPARATUS UTILISING SAME” (The University of Manchester, priority 2014, published 2017).
# B1: mouse PLA2R: recombinant mouse PLA2R (R&D) (protein)
# chain: QDLTHIQEPSLEWRDKGIFIIQSESLKTCIQAGKSVLTLENCKQPNEHMLWKWVSDDHLFNVGGSGCLGLNISALEQPLKLYECDSTLISLRWHCDRKMIEGPLQYKVQVKSDNTVVARKQIHRWIAYTSSGGDICEHPSRDLYTLKGNAHGMPCVFPFQFKGHWHHDCIREGQKEHLLWCATTSRYEEDEKWGFCPDPTSMKVFCDATWQRNGSSRICYQFNLLSSLSWNQAHSSCLMQGGALLSIADEDEEDFIRKHLSKVVKEVWIGLNQLDEKAGWQWSDGTPLSYLNWSQEITPGPFVEHHCGTLEVVSAAWRSRDCESTLPYICKRDLNHTAQGILEKDSWKYHATHCDPDWTPFNRKCYKLKKDRKSWLGALHSCQSNDSVLMDVASLAEVEFLVSLLRDENASETWIGLSSNKIPVSFEWSSGSSVIFTNWYPLEPRILPNRRQLCVSAEESDGRWKVKDCKERLFYICKKAGQVPADEQSGCPAGWERHGRFCYKIDTVLRSFEEASSGYYCSPALLTITSRFEQAFITSLISSVAEKDSYFWIALQDQNNTGEYTWKTVGQREPVQYTYWNTRQPSNRGGCVVVRGGSSLGRWEVKDCSDFKAMSLCKTPVKIWEKTELEERWPFHPCYMDWESATGLASCFKVFHSEKVLMKRSWREAEAFCEEFGAHLASFAHIEEENFVNELLHSKFNWTQERQFWIGFNRRNPLNAGSWAWSDGSPVVSSFLDNAYFEEDAKNCAVYKANKTLLPSNCASKHEWICRIPRDVRPKFPDWYQYDAPWLFYQNAEYLFHTHPAEWATFEFVCGWLRSDFLTIYSAQEQEFIHSKIKGLTKYGVKWWIGLEEGGARDQIQWSNGSPVIFQNWDKGREERVDSQRKRCVFISSITGLWGTENCSVPLPSICKRVKIWVIEKEKPPTQPGTCPKGWLYFNYKCFLVTIPKDPRELKTWTGAQEFCVAKGGTLVSIKSELEQAFITMNLFGQTTNVWIGLQSTNHEKWVNGKPLVYSNWSPSDIINIPSYNTTEFQKHIPLCALMSSNPNFHFTGKWYFDDCGKEGYGFVCEKMQDTLEHHVNVSDTSAIPSTLEYGNRTYKIIRGNMTWYAAGKSCRMHRAELASIPDAFHQAFLTVLLSRLGHTHWIGLSTTDNGQTFDWSDGTKSPFTYWKDEESAFLGDCAFADTNGRWHSTACESFLQGAICHVVTETKAFEHPGLCSETSVPWIKFKGNCYSFSTVLDSRSFEDAHEFCKSEGSNLLAIRDAAENSFLLEELLAFGSSVQMVWLNAQFDNNNKTLRWFDGTPTEQSNWGLRKPDMDHLKPHPCVVLRIPEGIWHFTPCEDKKGFICKMEAGIPAVTAQPEKGLSHS
# Test system: human anti-PLA2R autoantibodies
# Test: Western blotting of PLA2R fragments with human anti-PLA2R autoantibodies
# Type: binding
molecule,measurement,value
B1,recognition by human anti-PLA2R autoantibodies,fail to react
